This assay deals with Spleen tyrosine kinase (Syk) (UniProt P43405). Nature of the assay: affinity purification of mIgG2a-BCRs with protein A/G agarose beads, anti-Syk immunoblot, band intensity quantified. As to conditions: no inhibitor, Ramos cells. On the technique in general: Immunoblotting shows a protein as a band on a membrane.

Regarding “mIgG2a-BCR (wild-type mouse γ2am expressed in Ramos cells, with Igα/β) (from UniProt P11912;P40259) YF”, the response (Syk/γ2am (normalized band intensity)) by setting is: (stimulated for 5 min with polyclonal goat anti-mouse IgG antibodies) 1.7; (unstimulated (0 min α-IgG)) 0.3.

Source of the values: PMC4263166.
